Measurements as given in patent publication US20230218875A1, “PARTICLE-ATTACHED MICRONEEDLE AND METHOD OF MANUFACTURING THE SAME” (QuadMedicine, Inc., priority 2022, published 2023).

Test: Adhesion force of ovalbumin particles to PDMS 40 by centrifugation
Format: physicochemical
Protocol: Ovalbumin particles with an average diameter of 10 μm were attached to a plate with a diameter of 0.5 cm containing a PDMS 40 adhesive layer. Next, the plate was placed in a centrifuge tube. After centrifuging the tube at 27,000 g (Centrifuge, 1730R, LABOGENE, South Korea) for 10 min, the plate was weighed using a high-precision balance (Satorius SE2-F, Gottingen, Germany), and the amount of ovalbumin particles separated from the surface of PDMS 40 during centrifugation was calculated.

B1: ovalbumin particles: Ovalbumin particles with an average diameter of 10 μm attached to a plate containing a PDMS 40 adhesive layer (protein, UniProt P01012 2-386, looked up)
Ovalbumin: GSIGAASMEFCFDVFKELKVHHANENIFYCPIAIMSALAMVYLGAKDSTRTQINKVVRFDKLPGFGDSIEAQCGTSVNVHSSLRDILNQITKPNDVYSFSLASRLYAEERYPILPEYLQCVKELYRGGLEPINFQTAADQARELINSWVESQTNGIIRNVLQPSSVDSQTAMVLVNAIVFKGLWEKAFKDEDTQAMPFRVTEQESKPVQMMYQIGLFRVASMASEKMKILELPFASGTMSMLVLLPDEVSGLEQLESIINFEKLTEWTSSNVMEERKIKVYLPRMKMEEKYNLTSVLMAMGITDVFSSSANLSGISSAESLKISQAVHAAHAEINEAGREVVGSAEAGVDAASVSEEFRADHPFLFCIKHIATNAVLFFGRCVSP
modifications: particles
notes: Ovalbumin particles with an average diameter of 10 μm attached to a plate containing a PDMS 40 adhesive layer
Initial ovalbumin particles remaining on the surface of PDMS 40 (27,000 g for 10 min, pressure 0.2 N/cm^2, average diameter 10 μm): 96%
Vertical adhesion force between ovalbumin particles and PDMS 40 (from centrifugation at 27,000 g): more than 0.2 N/cm^2
